Experimental data reported in the DeepSol protein solubility set.

Assay: soluble on expression in E. coli; label from the status in PepcDB or PDB records

Sequence | soluble on expression in E. coli
MLGLLRRLFDNNEREIARYYKQVVEPVNRLEAEVEKLPDLAAAYRELKEKHEKGASLDELLPMAFALTRESAKRYLGMRHFDVQLIGGAVLHEGKIAEMKTGEGKTLVATLAVALNALTGKGVHVVTVNDYLARRDAEWMGPVYRGLGLSVGVIQHASTPAERRKAYLADVTYVTNSELGFDYLRDNMAISPDQLVLRHDHPLHYAIIDEVDSILIDEARTPLIISGPAEKATDLYYKMAEIAKKLERGLPAEPGVRKEPTGDYTVEEKNRSVHLTLQGIAKAEKLLGIEGLFSPENMELAHMLIQAIRAKELYHRDRDYIVQDGQVIIVDEFTGRLMPGRRYGEGLHQAIEAKEGVRIERENQTLATITYQNFFRLYEKRAGMTGTAKTEEKEFQEIYGMDVVVVPTNRPVIRKDFPDVVYRTEKGKFYAVVEEIAEKYERGQPVLVGTISIEKSERLSQMLKEPRLYLPRLEMRLELFKKASQKQQGPEWERLRKLLERPAQLKDEDLAPFEGLIPPKGNLRTAWEGLKRAVHTLAVLRQGIPHQVLNAKHHAREAEIVAQAGRSKTVTIATNMAGRGTDIKLGGNPEYLAAALLEKEGFDRYEWKVELFIKKMVAGKEEEARALAQELGIREELLERIREIREECKQDEERVRALGGLFIIGTERHESRRIDNQLRGRAGRQGDPGGSRFYVSFDDDLMRLFASDRVIAMLDRMGFDDSEPIEHPMVTRSIERAQKRVEDRNFAIRKQLLQFDDVLSRQREVIYAQRRLILLGKDEEVKEAAIGMVEETVASLAENFLNPEVHPEDWDLEGLKATLLDTAPQLQDFPFAELRALKAEEAVERLVEAALKAYEAREAELSPPLMRAVERFVILNVVDNAWKEHLHNLDVLRQGIFLRGYGQKDPFQEYKIEATRLFNEMVAFIKSEVAKFLFRLKVEAEPVRPVREAPYVPVPEAKPEPSEVFGVERKRATPPPQPGLSRAERRRLMRQEKKRKK | soluble
MPKWGNINERRNQLHEVIRLSGMNLIIDDTDHPLIIKVASIQSARMQVYFIDNDDYFQNRLQTADENGVEYDDNDSRAIFYARGVLETVKKLRWCPDVIHCHGWMTALAPLYIKKAYKDEPSFRDAKVVFSVYEDDFKNTLSEDFATKLMLKGITKKDLAGLKEPVDYAALCKLAVDYSDGIIQNSAKVDESIIEYARQSGKLVLDYQDPENYANACNEFYDQVWETTTNKEEELEHHHHHH | soluble
MSQATKRKHVVKEVLGEHIVPSNQQQIVRVLRTPGNNLHEVETAQGQRFLVSMPSKYRKNIWIKRGDFLIVDPIEEGEKVKAEISFVLCKDHVRSLQKEGFWPEAFSEVAEKHNNRNRQTQPELPAEPQLSGEESSSEDDSDLFVNTNRRQYHESEEESEEEEAA | soluble
MRDMIHNISYRLMVYGTEDEEKVIEALRNVIPGATPERESAEGYHGNPITVLRGRLDRRRALREFMEKFTEVFRGRMDELEDRFDENGNLFLRLDKQKALEGVWEPVRHGDAIHLKIKVEAYPAKREVAVENIRKILE | not soluble
MGSDKIHHHHHHMQPSNSWVCLSALEKQVVAATASLDNRGLAYADGFFTTMGVINGQILWAEYHHQRLISHAKALQLDLDSWSLLSTLQVHAQQHRQGMLKLIITRAAQDIRGYGYTPSECGSACESWLKSLAMTVSTAEQLSLNDECSIPVQPVSTAVCLSSQIACLPPSIAGLKTLNRLDNVLASAELQGIKTRVLASNGEGDISEGLLRDMTGRWVEGTMSNVFYQLSDSRLVDSPSSEMINIPNNKSNTNYLTQGQWYTPSMAQSGVAGVMRQVIIDELSTTKYPVVVRSLQDKDLPQLQQLFFCNALRGIMPMASLTLLSGEMVGF | not soluble
MKATGFMGPCYAKAMATRYRFGLEEYERLFRGIRDVELLAGEVYRMSPIGPKHAWSVARLNRLFTEALGDRAVVWPQNPIRIPPHSEPQPDLALLRPKSYGEGLPTPEDVLLLVEVAETSLEHDQGLKLSLYAQAGIPEVWVLDLKENRLHVYRTPKAGVYTEHRILLPGEEAEPLAFPGVRIPWS | soluble
MDMVAQALELSRKPHVVIATPGRLADHLRSSNTFSIKKIRFLVMDEADRLLEQGCTDFTVDLEAILAAVPARRQTLLFSATLTDTLRELQGLATNQPFFWEAQAPVSTVEQLDQRYLLVPEKVKDAYLVHLIQRFQDEHEDWSIIIFTNTCKTCQILCMMLRKFSFPTVALHSMMKQKERFAALAKFKSSIYRILIATDVASRGADQPPLPPGAWTSLRYRWSSTTTPPGSPRSTSTESAGRPVQGGRVRPSRW | soluble
MSLRLPMGLVAVLALVGTAAHAAPKGAEARMIATVDAEQARTLRFLEVMVNQNSGSRNLEGVRRLRDIVVPEFTALGFTSRWIPMERTGRAGHLVLTHKGRQGAKKLLLIGHLDTVFEPDSPFQTYVLNGEKATGPGVGDDKGGIAVILAAVRAMNAAGTLKGASIEVFLTGDEEEAGSPTEVARADLVAAARAADVALDFEGLSRENGRDMGSIARRSSQSWSLTVEAKSGHSSGVWGANAGDGAIYAAAKIVNAFRTELPEPWLTLNVGLIAGGAEAEVAEDNAHVSAQGKTNIIPGEVIARGDLRTLSPEQNRAAMRKMEEIVGRPYPGVTSARIAFSEGYPPMAPTEGNKALLARLNQVNATLGLPEMQPLDPMKRGAGDISFVAEYIDGLVGLGPHSTGDHAPGETVDVPSIWTQAKRAALLMTRLSAEKSAREGHHHHHH | soluble
MGSDKIHHHHHHAAPSPDAQRVAAYAASHFQQAQIDTLKTLVGYDTRARDGLTPDTDPVFADFKRALGVKARMLGLDVEDNGYVMLISLSPEGAGTDVKKVGVITHGDVQPADPSLWPQSPYELTETADGRLVGRGAEDDKGPIATALYAMKAIKDSGIVLKRRIELLVYMAEESDWEPLKDFLKTYEPADINITLDAEYPVVTGEKGWSQIKLSLPRVMVKVGADTPVLTYFSGGSFASQIPQQASAVIQNTNPELVAALKARAKTLPIKTDFIDEPQGLTIHATGKAAHSSTPEDGINAVAYLAELLSPTADGGIPEWPMTTAAVTVDFLHSLVGTGLYGERFGKLGYSDEFMGPMTLAPTLITEGKEGTDVTLNLRRPVGRTPEALDKLAIAAIHGWQDARGTQVADIETYWGTPMLIDDAPHLETLLGVFGHYTNTAGPKPIAIGGSTNAKLFPNALSFGPAMPGMEYTGHSEYEFITRDQLKLNLEMYTAALVELAMRE | not soluble
MGSDKIHHHHHHMKVFTEKIPNIPWEERPEGYTGPVWRYSKNPIIGRNPVPKGARVFNSAVVPYNGEFVGVFRIDHKNTRPFLHFGRSKDGINWEIEPEEIQWVDVNGEPFQPSYAYDPRVVKIEDTYYITFCTDDHGPTIGVGMTKDFKTFVRLPNAYVPFNRNGVLFPRKINGKYVMLNRPSDNGHTPFGDIFLSESPDMIHWGNHRFVLGRSSYNWWENLKIGAGPYPIETSEGWLLIYHGVTLTCNGYVYSFGAALLDLDDPSKVLYRSRYYLLTPEEEYETVGFVPNVVFPCAALCDADTGRVAIYYGAADTHVALAFGYIDEIVDFVKRNSM | soluble
MVHRLDISSEMIAFFKNCAKNGNYTPFLSNYRGLIRDIGQQLEKVSLPNNSLEKLMVKHFANCFVALHTMNSLDELAASAPKFVADFKQAIGNKKTLKELHDNFKSSDTKQQGLNRKLTNKMERNRSEMKQFKMEMMSSFNGLKQNMDTKMEEMMQLMRALIQDLTSQKLAQNPESSKCSFPNYGLEIQKKFEDMIQNMKSQTGSVFELKLKEIEQLEAEAENTIPKIPKKAAGSSSEH | not soluble
EVQLQQSGPELVKPGTSVKMSCKASGYTFTDYYMKWVKHSHGKSLEWIGDINPSNGGTLYNQKFKGKATLTVDKSSSTASMQLSRLTSEDSAVYYCSRGDGIHGGFAYWGQGTTVTVSSAKTTAPSVYPLAPVCGDTTGSSVTLGCLVKGYFPEPVTLTWNSGSLSSGVHTFPAVLQSDLYTLSSSVTVTSSTWPSQSITCNVAHPASSTKVDKKIVPQV | soluble
MNQKLKVAIIGSGNIGTDLMIKVLRNAKYLEMGAMVGIDAASDGLARAQRMGVTTTYAGVEGLIKLPEFADIDFVFDATSASAHVQNEALLRQAKPGIRLIDLTPAAIGPYCVPVVNLEEHLGKLNVNMVTCGGQATIPMVAAVSRVAKVHYAEIVASISSKSAGPGTRANIDEFTETTSKAIEVIGGAAKGKAIIIMNPAEPPLIMRDTVYVLSAAADQAAVAASVAEMVQAVQAYVPGYRLKQQVQFDVIPESAPLNIPGLGRFSGLKTSVFLEVEGAAHYLPAYAGNLDIMTSAALATAERMAQSMLNA | soluble
MVCQHNDELEALVKKAKKVTDKGEVASYIPALAKADKHDLSVAIYYSNNVCLSAGDVEKTFTLQSISKVLSLALVLMEYGKDKVFSYVGQEPTGDPFNSIIKLETVNPSKPLNPMINAGALVVTSLIRGRTVKERLDYLLSFIRRLTNNQEITYCREVAESEYSTSMINRAMCYYMKQYGIFEDDVEAVMDLYTKQCAIEMNSLDLAKIGSVFALNGRHPETGEQVISKDVARICKTFMVTCGMYNASGEFAIKVGIPAKSGVSGGIMGISPYDFGIGIFGPALDEKGNSIAGVKLLEIMSEMYRLSIFLEHHHHHH | soluble
HLVCPMSKSPYVDPHKSGHEIWEEFSMSFTPAVKEVVEFAKRIPGFRDLSQHDQVNLLKAGTFEVLMVRFASLFDAKERTVTFLSGKKYSVDDLHSMGAGDLLNSMFEFSEKLNALQLSDEEMSLFTAVVLVSADRSGIENVNSVEALQETLIRALRTLIMKNHPNEASIFTKLLLKLPDLRSLNNMHSEELLAFKVHP | soluble
MDALAIINKYYPEDNELKHILLAHSRSVADKALWIAGKHPELNLDKQFLEEAAMLHDIGIFMTDAEGICCFGSYPYICHGYLGADLMRKEGFPRHALVCERHTGAGMSLQSIIDQQLPVPHRNMVPVSLEEQVICFADKFFSKTHLDREKSVEKALKSISRYGEDGIIRFNHWCECFL | soluble
MGSDKIHHHHHHMDKAKLIDLIKTNPNALVYIPNPSDELKLLAVQKNGLALKHIEHPTPEMQELALANNSRAIQFIDNPTEEMMNKAIQDSWVNLEYLQHPSETIIKLAITQAGWAIKYVKHPSEELQLLAVRRHYDSIKFIKDPCPKAQEEAVRINYDALRYIDSPTPQAELLAIRNHESAIAFVKDLSKEKILQFLGVNFLVIKYVRNDITKAELEQVLKETLGQEDVDEKYVRDFLNSSTIHKNSGQMSLDKIMFIYHYGSRKAKKVAVDEKLKI | not soluble
MPKINTSSSGWLADISLFYEKRGTNTKLVHREQVGPLMVQRPFYPETGIAHTYLLHPPGGVVGGDQLNINIHVSPQAHSLLTTPGATKFYRSSGATSSQTQNLTVESDGFLEWLPQENIFFPDSQAQLKTQVELHKNAHFIGWEMNCFGRPVLDEIFENGFVTGRTNIKVDDQLLLSESMYIDSIDEIKHAAGMRHYPMLGNLYIYPASEALEEKLRTLIDENFHEQPELFGSSNPICGITEIDGLLVIRYLGHQTEPMMACFSTLWQHTRQHWLGKLPEVPRIWATLEHHHHHH | not soluble
MLDIVLYEPEIPQNTGNIIRLCANTGFRLHLIEPLGFTWDDKRLRRSGLDYHEFAEIKRHKTFEAFLESEKPKRLFALTTKGCPAHSQVKFKLGDYLMFGPETRGIPMSILNEMPMEQKIRIPMTANSRSMNLSNSVAVTVYEAWRQLGYKGAVNLPEVKLEHHHHHH | soluble
MGSDKIHHHHHHMSQTLLPPGWVEKLCDPYAVLGISVIADDRQIFKRYHTLAKLLHPDRHAKNCNPDQKLATAIFSHLINPAYQQLKHRQKRLIAIAMLRSDARVSEQKPLSSQSAIAQEIMKMSTPEAELFYEEAIACYAEAQYKSLDQFYQVTQQITILNLVYLRLHKPDLFLPQKAVAIIPEVEVNPVELTLTDVKPVLTNYAQRHYQRAIEYVRLGKWVIAVQELRDAIKLEPNNSDYYALLGLVHLKQKFMGMARVYICQALKLNPQNSLALKYAPELKIKLGENTNPKSMAKAVSIAALLSRFTQRKGSQVKC | not soluble
